From US20080248034A1 (MORPHOTEK, published 2008)

T1: murine TEM-1 (in mouse 2H11 cells) (mouse, UniProt Q91V98 18-765)
T1 construct: Endogenous protein in lysate of mouse 2H11 cells, on a Western blot; also called murine endosialin
T1 sequence: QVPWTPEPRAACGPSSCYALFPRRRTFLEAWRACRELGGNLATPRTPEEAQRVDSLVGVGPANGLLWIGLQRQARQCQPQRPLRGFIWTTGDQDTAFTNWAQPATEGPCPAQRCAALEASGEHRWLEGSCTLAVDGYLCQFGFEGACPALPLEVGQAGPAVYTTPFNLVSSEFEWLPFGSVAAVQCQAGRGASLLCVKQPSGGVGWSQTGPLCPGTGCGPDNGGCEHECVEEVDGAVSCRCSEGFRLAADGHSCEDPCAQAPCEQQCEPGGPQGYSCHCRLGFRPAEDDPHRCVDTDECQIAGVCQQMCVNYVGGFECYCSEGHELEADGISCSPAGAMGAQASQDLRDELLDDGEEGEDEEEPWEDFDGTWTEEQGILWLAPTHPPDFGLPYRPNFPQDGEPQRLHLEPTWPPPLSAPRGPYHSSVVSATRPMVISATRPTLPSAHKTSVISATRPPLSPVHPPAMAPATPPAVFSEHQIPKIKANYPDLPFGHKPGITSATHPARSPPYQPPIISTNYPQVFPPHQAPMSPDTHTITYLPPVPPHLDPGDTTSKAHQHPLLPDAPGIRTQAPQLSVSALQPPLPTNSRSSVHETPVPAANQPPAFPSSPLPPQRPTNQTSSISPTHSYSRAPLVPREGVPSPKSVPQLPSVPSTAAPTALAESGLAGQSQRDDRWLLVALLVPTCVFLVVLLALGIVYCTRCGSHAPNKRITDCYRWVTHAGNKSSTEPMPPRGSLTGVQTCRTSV

B1: recombinant human fibronectin fragment 4 (Fn4) (other)
chain: VTDATETTITISWRTKTETITGFQVDAVPANGQTPIQRTIKPDVRSYTITGLQPGTDYKIYLYTLNDNARSSPVVIDASTAIDAPSNLRFLATTPNSLLVSWQPPRARITGYIIKYEKPGSPPREVVPRPRPGVTEATITGLEPGTEYTIYVIALKNNQKSEPLIGRKKTDELPQLVTLPHPNLHGPEILDVPSTVQKTPFVTHPGYDTGNGIQLPGTSGQQPSVGQQMIFEEHGFRRTTPPTTATPIRHRPRPYPPNVGEEIQIGHIPREDVDYHLYPHGPGLNPNASTGQEALSQTTISWAPFQDTSEYIISCHPVGTDEEPLQFRVPGTSTSATLTGLTRGATYNIIVEALKDQQRHKVREEVVTVGNSVNEGLNQPTDDSCFDPYTVSHYAVGDEWERMSESGFKLLCQCLGFGSGHFRCDSSRWCHDNGVNYKIGEKWDRQGENGQMMSCTCLGNGKGEFKCDPHEATCYDDGKTYHVGEQWQKEYLGAICSCTCFGGQRGWRCDNCRRPGGEPSPEGTTGQSYNQYSQRYHQRTNTNVNCPIECFMPLDVQADREDSRE
notes: Bought (R&D Systems)
B2: Fc-TEM1 (soluble recombinant endosialin: full-length TEM1 extracellular domain fused to monomeric murine IgG2b Fc) (Fc fusion, human)
chain: QDPWAAEPRAACGPSSCYALFPRRRTFLEAWRACRELGGDLATPRTPEEAQRVDSLVGAGPASRLLWIGLQRQARQCQLQRPLRGFTWTTGDQDTAFTNWAQPASGGPCPAQRCVALEASGEHRWLEGSCTLAVDGYLCQFGFEGACPALQDEAGQAGPAVYTTPFHLVSTEFEWLPFGSVAAVQCQAGRGASLLCVKQPEGGVGWSRAGPLCLGTGCSPDNGGCEHECVEEVDGHVSCRCTEGFRLAADGRSCEDPCAQAPCEQQCEPGGPQGYSCHCRLGFRPAEDDPHRCVDTDECQIAGVCQQMCVNYVGGFECYCSEGHELEADGISCSPAGAMGAQASQDLGDELLDDGEDEEDEDEAWKAFNGGWTEMPGILWMEPTQPPDFALAYRPSFPEDREPQIPYPEPTWPPPLSAPRVPYHSSVLSVTRPVVVSATHPTLPSAHQPPVIPATHPALSRDHQIPVIAANYPDLPSAYQPGILSVSHSAQPPAHQPPMISTKYPELFPAHQSPMFPDTRVAGTQTTTHLPGIPPNHAPLVTTLGAQLPPQAPDALVLRTQATQLPIIPTAQPSLTTTSRSPVSPAHQISVPAATQPAALPTLLPSQSPTNQTSPISPTHPHSKAPQIPREDGPSPKLALWLPSPAPTAAPTALGEAGLAEHSQRDDRWLDDDD
notes: extracellular domain; Monomeric secreted fusion protein made in CHO cells; also called TEM1-Fcγ; not shown: murine IgG2b Fcγ domain (hinge through CH3), modified: the four cysteine residues responsible for inter-heavy chain disu
B3: M4.1 (humanized antibody to human endosialin) (antibody, human IgG1, kappa)
heavy: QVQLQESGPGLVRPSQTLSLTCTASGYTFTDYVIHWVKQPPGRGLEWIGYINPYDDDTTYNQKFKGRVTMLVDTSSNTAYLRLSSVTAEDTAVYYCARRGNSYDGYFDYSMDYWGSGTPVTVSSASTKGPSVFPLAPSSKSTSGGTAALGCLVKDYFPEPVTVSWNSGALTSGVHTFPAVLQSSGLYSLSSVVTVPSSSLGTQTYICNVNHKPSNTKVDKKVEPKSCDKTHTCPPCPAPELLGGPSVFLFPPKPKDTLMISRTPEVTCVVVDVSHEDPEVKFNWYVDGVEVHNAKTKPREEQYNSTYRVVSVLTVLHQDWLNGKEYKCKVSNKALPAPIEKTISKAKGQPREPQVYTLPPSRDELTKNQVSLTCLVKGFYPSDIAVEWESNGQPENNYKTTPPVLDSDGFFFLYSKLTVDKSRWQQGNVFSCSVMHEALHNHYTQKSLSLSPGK
light: DIQMTQSPSSLSASVGDRVTITCRASQNVGTAVAWLQQTPGKAPKLLIYSASNRYTGVPSRFSGSGSGTDYTFTISSLQPEDIATYYCQQYTNYPMYTFGQGTKVQIKRTVAAPSVFIFPPSDEQLKSGTASVVCLLNNFYPREAKVQWKVDNALQSGNSQESVTEQDSKDSTYSLSSTLTLSKADYEKHKVYACEVTHQGLSSPVTKSFNRGEC
notes: also called antibody M4.1
B4: human mesothelin (other, UniProt Q13421 296-598, looked up)
chain: EVEKTACPSGKKAREIDESLIFYKKWELEACVDAALLATQMDRVNAIPFTYEQLDVLKHKLDELYPQGYPESVIQHLGYLFLKMSPEDIRKWNVTSLETLKALLEVNKGHEMSPQVATLIDRFVKGRGQLDKDTLDTLTAFYPGYLCSLSPEELSSVPPSSIWAVRPQDLDTCDPRQLDVLYPKARLAFQNMNGSEYFVKIQSFLGGAPTEDLKALSQQNVSMDLATFMKLRTDAVLPLTVAEVQKLLGPHVEGLKAEERHRPVRDWILRQRQDDLDTLGLGLQGGIPNGYLVLDLSMQEALS
B5: ovalbumin (OVA) (other, UniProt P01012 2-386, looked up)
chain: GSIGAASMEFCFDVFKELKVHHANENIFYCPIAIMSALAMVYLGAKDSTRTQINKVVRFDKLPGFGDSIEAQCGTSVNVHSSLRDILNQITKPNDVYSFSLASRLYAEERYPILPEYLQCVKELYRGGLEPINFQTAADQARELINSWVESQTNGIIRNVLQPSSVDSQTAMVLVNAIVFKGLWEKAFKDEDTQAMPFRVTEQESKPVQMMYQIGLFRVASMASEKMKILELPFASGTMSMLVLLPDEVSGLEQLESIINFEKLTEWTSSNVMEERKIKVYLPRMKMEEKYNLTSVLMAMGITDVFSSSANLSGISSAESLKISQAVHAAHAEINEAGREVVGSAEAGVDAASVSEEFRADHPFLFCIKHIATNAVLFFGRCVSP
B6: recombinant human fibronectin fragment 2 (Fn2) (other)
chain: SSSGPVEVFITETPSQPNSHPIQWNAPQPSHISKYILRWRPKNSVGRWKEATIPGHLNSYTIKGLKPGVVYEGQLISIQQYGHQEVTRFDFTTTSTSTPVTSNTVTGETTPFSPLVATSESVTEITASSFVVSWVSASDTVSGFRVEYELSEEGDEPQYLDLPSTATSVNIPDLLPGRKYIVNVYQISEDGEQSLILSTSQTTAPDAPPDPTVDQVDDTSIVVRWSRPQAPITGYRIVYSPSVEGSSTELNLPETANSVTLSDLQPGVQYNITIYAVEENQESTPVVIQQETTGTPRSDTVPSPRDLQFVEVTDVKVTIMWTPPESAVTGYRVDVIPVNLPGEHGQRLPISRNTFAEVTGLSPGVTYYFKVFAVSHGRESKPLTAQQTTKLDAPTNLQFVNETDSTVLVRWTPPRAQITGYRLTVGLTRRGQPRQYNVGPSVSKYPLRNLQPASEYTVSLVAIKGNQESPKATGVFTTLQPGSSIPPYNTEVTETTIVITWTPAPRIGFKLGVRPSQGGEAPREVTSDSGSIVVSGLTPGVEYVYTIQVLRDGQERDAPIVNKVVTPLSPPTNLHLEANPDTGVLTVSWERSTTPDITGYRITTTPTNGQQGNSLEEVVHADQSSCTFDNLSPGLEYNVSVYTVKDDKESVPISDTIIP
notes: Bought (R&D Systems)

Tests used:
[1] = target: B2; experiment: ELISA on coated FN fragments (FIG. 7A)
[2] = target: T2, 120 kDa fibronectin fragment containing the cell attachment domain (UniProt P02751-1 722-1635, limits assumed); experiment: ELISA on coated FN fragments (FIG. 7A)
T2 construct: domain: 120 kDa fragment containing the cell attachment domain; Bought fragment; also called the 120 kDa fragment; 120 kDa cell attachment FN-fragment

[3] = target: T1, murine TEM-1 (in mouse 2H11 cells); experiment: Western blot of cell lysates (FIG. 15)
[4] = target: B2; experiment: antigen-specific ELISA, coated at 0.2 ug/ml (FIG. 4B)
[5] = target: B2; experiment: antigen-specific ELISA, coated at 2 ug/ml (FIG. 4B)

T2 sequence (P02751 other isoform, or with tags, fused parts or gaps limits assumed): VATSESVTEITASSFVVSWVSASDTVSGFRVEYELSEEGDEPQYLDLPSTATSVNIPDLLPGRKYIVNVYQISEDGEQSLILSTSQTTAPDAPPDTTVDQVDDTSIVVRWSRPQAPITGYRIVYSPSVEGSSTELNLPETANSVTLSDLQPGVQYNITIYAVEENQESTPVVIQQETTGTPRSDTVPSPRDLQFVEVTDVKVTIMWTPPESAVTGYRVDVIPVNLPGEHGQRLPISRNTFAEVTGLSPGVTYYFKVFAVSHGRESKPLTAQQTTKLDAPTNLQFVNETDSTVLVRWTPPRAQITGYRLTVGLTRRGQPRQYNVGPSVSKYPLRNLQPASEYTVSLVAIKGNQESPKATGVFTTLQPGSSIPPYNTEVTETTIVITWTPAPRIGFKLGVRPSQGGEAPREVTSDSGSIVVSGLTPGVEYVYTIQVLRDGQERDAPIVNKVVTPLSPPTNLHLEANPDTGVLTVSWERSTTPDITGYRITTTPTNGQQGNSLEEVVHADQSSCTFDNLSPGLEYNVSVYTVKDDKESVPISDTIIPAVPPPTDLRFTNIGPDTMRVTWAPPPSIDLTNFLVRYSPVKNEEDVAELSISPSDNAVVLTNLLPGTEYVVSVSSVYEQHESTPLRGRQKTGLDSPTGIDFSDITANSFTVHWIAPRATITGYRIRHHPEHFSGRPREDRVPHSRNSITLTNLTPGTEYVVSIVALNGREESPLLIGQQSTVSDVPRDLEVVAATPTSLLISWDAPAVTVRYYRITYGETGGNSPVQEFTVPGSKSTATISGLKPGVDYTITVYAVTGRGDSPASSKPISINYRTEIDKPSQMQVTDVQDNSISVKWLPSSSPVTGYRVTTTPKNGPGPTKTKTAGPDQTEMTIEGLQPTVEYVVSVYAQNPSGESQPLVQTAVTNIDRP

Binder: B1
- binding result [1]: no binding (tested: 1.25 ug/ml)

Binder: B2
- binding result [2]: no binding (tested: 1.25 ug/ml)

Binder: B3
- binding result [3]: no binding (tested: 3.3 ug/mL)

Binder: B4
- binding result [4]: no binding (tested: 5, 10, 50 ug/ml)

Binder: B5
- binding result [5]: no binding (tested: 5, 10, 50 ug/ml)

Binder: B6
- binding result [1]: no binding (tested: 1.25 ug/ml)
